Experimental findings from publication PMC3338918 are described below.

Experiment [1] addresses human VEGFR1-hFc (human) (UniProt P17948).
Experiment [2] concerns the target VEGF Trap (aflibercept) (human). Kind of experiment: KinExA solution equilibrium assay; KinExA 3000, room temperature (25°C); VEGF Trap (1–50 pM) equilibrated 10–96 h with varying ligand; unbound inhibitor captured on VEGF-A165-coupled Azlactone beads and detected with Cy5 anti-human IgG; one-site homogeneous binding model.
Experiment [3] shares this target. Kind of experiment: SPR; Biacore 3000, CM5 chip, 25°C, HBS-T (10 mM Hepes, 150 mM NaCl, 3.4 mM EDTA, 0.05% polysorbate 20, pH 7.4); VEGF Trap or receptor-Fc captured at low density on amine-coupled Protein A, ligands injected (1.0–0.062 nM VEGF-A, 2.5–0.156 nM VEGF-B(10-108), 5.0–0.078 nM PlGF); kd of VEGF-A ligands by the 'fixed kd' procedure on a Biacore 2000 (~2–3 h); KD = kd/ka. (In SPR one partner is held on a chip, and binding of the other changes the refractive index at the surface.)

The target of experiment [4] is human VEGFR1-hFc (human) (UniProt P17948). The description is as above.
A further experiment deals with human VEGFR2-hFc (human) (UniProt P35968). The experiment is described as above.
The target in experiment [5] is T1, human PlGF-2 (human) (UniProt P49763).
T1 sequence: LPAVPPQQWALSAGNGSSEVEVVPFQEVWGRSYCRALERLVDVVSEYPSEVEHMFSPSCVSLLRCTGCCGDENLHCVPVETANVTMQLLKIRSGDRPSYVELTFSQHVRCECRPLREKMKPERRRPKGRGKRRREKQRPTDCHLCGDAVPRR

Experiment [6] addresses human VEGF-A165 (human).
The target of experiment [7] is T2, murine PlGF-2 (mouse) (UniProt P49764).
T2 sequence: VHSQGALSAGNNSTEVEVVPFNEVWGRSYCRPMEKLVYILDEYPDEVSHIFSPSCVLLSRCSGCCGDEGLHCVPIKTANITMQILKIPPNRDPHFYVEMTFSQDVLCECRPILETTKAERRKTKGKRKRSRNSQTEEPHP

Experiment [8] has as its target human VEGF-A165 (human). This is another data set of the same source.
Experiment [9] has as its target T1, human PlGF-2 (human). This is another data set of the same source.
In experiment [10] the target is T2, murine PlGF-2 (mouse). The source holds these as a separate data set.

human VEGFR2-hFc (human), sequence (P35968 20-764): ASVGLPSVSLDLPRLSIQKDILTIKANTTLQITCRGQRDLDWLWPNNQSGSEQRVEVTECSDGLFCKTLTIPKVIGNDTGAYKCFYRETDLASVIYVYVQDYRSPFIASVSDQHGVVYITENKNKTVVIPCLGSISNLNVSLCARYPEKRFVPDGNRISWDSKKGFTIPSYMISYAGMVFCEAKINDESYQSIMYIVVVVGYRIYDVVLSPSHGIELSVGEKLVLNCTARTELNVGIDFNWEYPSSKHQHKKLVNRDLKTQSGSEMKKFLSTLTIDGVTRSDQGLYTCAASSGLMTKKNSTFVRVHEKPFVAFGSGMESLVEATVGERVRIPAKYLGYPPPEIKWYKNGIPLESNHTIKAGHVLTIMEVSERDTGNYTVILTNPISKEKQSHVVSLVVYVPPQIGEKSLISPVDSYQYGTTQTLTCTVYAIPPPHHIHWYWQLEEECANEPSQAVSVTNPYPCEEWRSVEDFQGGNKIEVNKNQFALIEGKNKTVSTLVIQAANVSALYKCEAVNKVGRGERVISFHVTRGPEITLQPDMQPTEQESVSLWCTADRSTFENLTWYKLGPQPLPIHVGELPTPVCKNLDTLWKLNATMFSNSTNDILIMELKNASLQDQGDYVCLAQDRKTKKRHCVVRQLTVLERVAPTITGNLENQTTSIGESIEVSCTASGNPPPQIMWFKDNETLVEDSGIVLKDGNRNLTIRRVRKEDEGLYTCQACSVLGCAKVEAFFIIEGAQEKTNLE
human VEGFR1-hFc (human), sequence (P17948 27-758): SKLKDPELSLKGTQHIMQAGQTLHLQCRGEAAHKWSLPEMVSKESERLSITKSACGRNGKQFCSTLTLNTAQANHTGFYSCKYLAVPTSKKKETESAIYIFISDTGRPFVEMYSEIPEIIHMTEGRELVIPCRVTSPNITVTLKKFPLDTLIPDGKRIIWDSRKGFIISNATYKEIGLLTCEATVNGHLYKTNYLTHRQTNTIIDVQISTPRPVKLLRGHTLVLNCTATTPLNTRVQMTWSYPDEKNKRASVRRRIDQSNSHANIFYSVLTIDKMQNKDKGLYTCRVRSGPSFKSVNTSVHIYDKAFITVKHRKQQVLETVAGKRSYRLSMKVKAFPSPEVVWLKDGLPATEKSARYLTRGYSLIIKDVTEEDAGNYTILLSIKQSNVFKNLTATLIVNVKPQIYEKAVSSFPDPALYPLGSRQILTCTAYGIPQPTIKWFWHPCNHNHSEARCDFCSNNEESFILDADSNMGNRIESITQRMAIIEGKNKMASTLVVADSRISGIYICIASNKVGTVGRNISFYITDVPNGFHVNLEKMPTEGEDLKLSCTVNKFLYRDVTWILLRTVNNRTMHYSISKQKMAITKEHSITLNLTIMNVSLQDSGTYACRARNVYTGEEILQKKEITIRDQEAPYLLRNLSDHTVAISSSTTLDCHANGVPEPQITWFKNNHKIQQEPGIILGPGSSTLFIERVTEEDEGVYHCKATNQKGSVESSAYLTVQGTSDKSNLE
VEGF Trap (aflibercept) (Fc fusion), sequence (chain): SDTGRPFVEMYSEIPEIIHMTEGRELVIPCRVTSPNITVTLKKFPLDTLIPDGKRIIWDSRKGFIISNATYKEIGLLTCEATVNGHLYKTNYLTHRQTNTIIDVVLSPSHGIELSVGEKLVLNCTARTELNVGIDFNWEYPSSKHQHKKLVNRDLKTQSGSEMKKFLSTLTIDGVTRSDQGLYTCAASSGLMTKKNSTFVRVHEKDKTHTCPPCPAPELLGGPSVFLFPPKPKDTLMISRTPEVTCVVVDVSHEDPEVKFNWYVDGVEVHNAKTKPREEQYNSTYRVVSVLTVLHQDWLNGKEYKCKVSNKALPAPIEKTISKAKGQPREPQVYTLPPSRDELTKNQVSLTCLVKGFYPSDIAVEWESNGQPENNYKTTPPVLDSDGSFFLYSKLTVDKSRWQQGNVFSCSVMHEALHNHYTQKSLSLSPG

One may read the Kd as the constant that tells how readily two partners part at equilibrium. A low value points to higher affinity. As usually defined, the koff is the rate constant with which the complex falls apart. Lower therefore signals a long-lived complex. Usually kon stands for the rate constant with which the complex forms. A higher kon goes with faster complex formation. For human VEGF-A165 (ligand), the EC50 of luciferase activation in HEK293/VEGFR1 cells (dose response, 0.022 pM to 4.0 nM) with human VEGFR1-hFc (human) [1] was 17 pM. For the same substance, the Kd in experiment [2] was determined as 0.66 pM; in experiment [3], 0.49 pM; with human VEGFR1-hFc (human) [4] it was 9.33 pM; in the experiment with human VEGFR2-hFc (human), 88.8 pM. In addition, the values for the koff (in experiment [3]; with human VEGFR1-hFc (human) [4]; in the experiment with human VEGFR2-hFc (human)) were 2.01e-05 s⁻¹, 0.00028 s⁻¹ and 0.00135 s⁻¹, respectively. The kon in experiment [3] was found to be 4.1e+07 M⁻¹ s⁻¹; with human VEGFR1-hFc (human) [4], 3e+07 M⁻¹ s⁻¹; with human VEGFR2-hFc (human) it was 1.52e+07 M⁻¹ s⁻¹.

In the experiment with human VEGFR1-hFc (human) [1], human VEGF-A121 (ligand) gave an EC50 of luciferase activation in HEK293/VEGFR1 cells (dose response, 0.022 pM to 4.0 nM) of 13 pM. Moreover, the Kd in experiment [2] amounted to 0.18 pM. In [3], this substance gave a Kd of 0.36 pM, an off-rate (koff) of 1.35e-05 s⁻¹ and a kon of 3.75e+07 M⁻¹ s⁻¹.

In the case of “human VEGF-B(10-108) (domain or fragment)”, in [2], the Kd was 17.5 pM. In [3], this substance gave a Kd of 1.92 pM, a koff of 6.74e-05 s⁻¹ and a kon of 3.52e+07 M⁻¹ s⁻¹.

As to VEGF Trap (aflibercept) (Fc fusion), the IC50 of blocking luciferase activity induced by 40 pM hPlGF-2 in the HEK293/VEGFR1 reporter cell line (blocks hPlGF-2 with VEGFR1) with human PlGF-2 (human) [5] was found to be 2890 pM. In the experiment with human VEGF-A121 (human), the IC50 of blocking luciferase activity induced by 20 pM hVEGF-A121 in the HEK293/VEGFR1 reporter cell line (blocks VEGF-A121 with VEGFR1) was 15 pM. Besides, the IC50 of blocking luciferase activity induced by 20 pM hVEGF-A165 in the HEK293/VEGFR1 reporter cell line (blocks VEGF-A165 with VEGFR1) with human VEGF-A165 (human) [6] worked out at 16 pM. The same substance yielded an IC50 of blocking luciferase activity induced by 20 pM mPlGF-2 in the HEK293/VEGFR1 reporter cell line (blocks mPlGF-2 with VEGFR1) in the experiment with murine PlGF-2 (mouse) [7] of 104 pM. Besides, the reduction of HUVEC migration induced by 130 pM VEGF-A165 (modified Boyden chamber; inhibitor 0.013–13 nM), at a 1:1 molar ratio of VEGF Trap and VEGF-A165 in the experiment with human VEGF-A165 (human) [8] was found to be 90%. For the same substance, the block of HUVEC migration induced by human PlGF-2 (7.1 nM) by a 100-fold excess of VEGF Trap (modified Boyden chamber) with human PlGF-2 (human) [9] turned out to be 80%. In addition, in the experiment with murine PlGF-2 (mouse) [10], the block of HUVEC migration induced by mouse PlGF-2 (3.5 nM) by a 100-fold excess of VEGF Trap (modified Boyden chamber) is 80%.
